Laboratory results reported in patent US20170008955A1 (CNJ, published 2017).

B1: hu5E3-IgG1 (antibody, V domains shown)
VH: QVQLQQSGPEVKKPGASVKISCKASGYIFTSYYIQWVIHAPGQGLEWIGWIYPGNVNTKYNEKFKGKATLTADKSSSTAYMELSSLTSEDTAVYFCARMDYEAHYWGQGTTVTVSS
VL: DIQMTQSPSSLSASVGDRVTITCRASQEISGYLTWLQQKPEGAIKRLIYAASTLDSGVPKRFSGSRSGSDYSLTISSLQPEDFATYNCLQYANYPRTFGGGTKLEIK
notes: human IgG1/kappa; also called humanized 5E3 IgG1; IHA variant
B2: rehu5E3-IgG4 (antibody, V domains shown)
VH: QVQLQQSGPEVVKPGASVKISCKASGYIFTSYYIQWVIHAPGQGLEWIGWIYPGNVNTKYNEKFKGKATLTADKSSSTAYMELSSLRSEDSAVYFCARMDYEAHYWGQGTLVTVSS
VL: DIQMTQSPSSLSASLGDRVTLTCRASQEISGYLTWLQQKPEKAIKRLIYAASTLDSGVPKRFSGSRSGSDYTLTISSLQPEDFADYNCLQYANYPRTFGGGTKLEIK
notes: human IgG4/kappa; also called IgG4 rehu version

Assays:
cSNK:BSA conjugate [1] = target: T1, cSNK:BSA conjugate (bovine, head-to-tail cyclized; conjugated to BSA carrier); assay: BLI 2:1 fit, site 1; 50 nM row
T1 construct: also called BSA-cSNK
T1 sequence (P02769 25-607 limits assumed): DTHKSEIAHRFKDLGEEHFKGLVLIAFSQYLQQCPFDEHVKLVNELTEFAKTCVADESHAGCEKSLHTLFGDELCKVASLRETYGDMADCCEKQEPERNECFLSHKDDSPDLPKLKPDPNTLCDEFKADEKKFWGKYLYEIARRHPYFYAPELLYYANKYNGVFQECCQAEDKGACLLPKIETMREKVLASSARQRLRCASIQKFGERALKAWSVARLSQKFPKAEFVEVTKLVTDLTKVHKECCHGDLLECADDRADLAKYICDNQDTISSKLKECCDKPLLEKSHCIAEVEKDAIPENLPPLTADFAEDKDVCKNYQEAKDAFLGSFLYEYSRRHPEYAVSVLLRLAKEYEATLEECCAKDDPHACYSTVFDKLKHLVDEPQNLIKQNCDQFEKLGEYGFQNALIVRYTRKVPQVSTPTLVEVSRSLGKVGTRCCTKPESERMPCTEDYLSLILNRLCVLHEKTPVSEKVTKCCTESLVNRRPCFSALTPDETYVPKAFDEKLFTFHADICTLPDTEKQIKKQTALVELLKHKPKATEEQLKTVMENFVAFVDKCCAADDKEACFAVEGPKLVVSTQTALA
Description: (§1) Biolayer interferometry (Octet […], ForteBio) was used to qualitatively/quantitatively assess the interactions between humanized versions of 5E3 and cSNK:BSA conjugate. […] MAbs were loaded onto sensors and then washed in PBST. Each sensor was associated with one of several cSNK:BSA standards (100 nM to 0 nM) and then washed in PBST. Data was processed statistically using ForteBio Data Analysis software to determine the strength of antigen-antibody binding (KD). For each mAb analyzed, a 2:1 model provided the “best fit”.

cSNK:BSA conjugate [2] = target: T1, cSNK:BSA conjugate; assay: BLI 2:1 fit, site 1; 3.13 nM row
Description: as §1

cSNK:BSA conjugate [3] = target: T1, cSNK:BSA conjugate; assay: BLI 2:1 fit, site 1; 6.25 nM row
Description: as §1

cSNK:BSA conjugate [4] = target: T1, cSNK:BSA conjugate; assay: BLI 2:1 fit, site 1; 1.56 nM row
Description: as §1

cSNK:BSA conjugate [5] = target: T1, cSNK:BSA conjugate; assay: BLI (Octet), 1:1 model, BSA-cSNK
Description: Biolayer interferometry (Octet Red92, ForteBio) was used to qualitatively/quantitatively assess the interactions between humanized 5E3 and Δ5E3 mAbs to the cSNK:BSA conjugate. […] MAbs were loaded onto sensors and then washed in PBST. Each sensor was associated with one of several cSNK:BSA standards (100 nM to 0 nM) and then washed in PBST. Data was processed statistically using ForteBio Data Analysis software to determine the strength of antigen-antibody binding (KD). For each mAb analyzed, a 1:1 model provided the “best fit”.

cSNK:BSA conjugate [6] = target: T1, cSNK:BSA conjugate; assay: BLI 2:1 fit, site 2 (KD2); 25 nM row
Description: as §1

cSNK:BSA conjugate [7] = target: T1, cSNK:BSA conjugate; assay: BLI 2:1 fit, site 2 (kon2); 25 nM row
Description: as §1

cSNK:BSA conjugate [8] = target: T1, cSNK:BSA conjugate; assay: BLI 2:1 fit, site 2 (KD2); 3.13 nM row
Description: as §1

cSNK:BSA conjugate [9] = target: T1, cSNK:BSA conjugate; assay: BLI 2:1 fit, site 2 (KD2); 6.25 nM row
Description: as §1

cSNK:BSA conjugate [10] = target: T1, cSNK:BSA conjugate; assay: BLI 2:1 fit, site 2 (kdis2); 25 nM row
Description: as §1

cSNK:BSA conjugate [11] = target: T1, cSNK:BSA conjugate; assay: BLI 2:1 fit, site 2 (kdis2); 50 nM row
Description: as §1

cSNK:BSA conjugate [12] = target: T1, cSNK:BSA conjugate; assay: BLI 2:1 fit, site 2 (KD2); 1.56 nM row
Description: as §1

cSNK:BSA conjugate [13] = target: T1, cSNK:BSA conjugate; assay: BLI 2:1 fit, site 2 (KD2); 12.5 nM row
Description: as §1

cSNK:BSA conjugate [14] = target: T1, cSNK:BSA conjugate; assay: BLI 2:1 fit, site 2 (kon2); 3.13 nM row
Description: as §1

cSNK:BSA conjugate [15] = target: T1, cSNK:BSA conjugate; assay: BLI 2:1 fit, site 2 (kon2); 6.25 nM row
Description: as §1

cSNK:BSA conjugate [16] = target: T1, cSNK:BSA conjugate; assay: BLI 2:1 fit, site 2 (kon2); 1.56 nM row
Description: as §1

cSNK:BSA conjugate [17] = target: T1, cSNK:BSA conjugate; assay: BLI 2:1 fit, site 2 (kon2); 12.5 nM row
Description: as §1

cSNK:BSA conjugate [18] = target: T1, cSNK:BSA conjugate; assay: BLI 2:1 fit, site 2 (kdis2); 12.5 nM row
Description: as §1

cSNK:BSA conjugate [19] = target: T1, cSNK:BSA conjugate; assay: BLI 2:1 fit, site 2 (kdis2); 6.25 nM row
Description: as §1

cSNK:BSA conjugate [20] = target: T1, cSNK:BSA conjugate; assay: BLI 2:1 fit, site 2 (kdis2); 1.56 nM row
Description: as §1

cSNK:BSA conjugate [21] = target: T1, cSNK:BSA conjugate; assay: BLI (Octet RED96), 2:1 kinetics, KD1, summary table
Description: as §1
(§2) Table 7 summarizes the affinity constants of humanized 5E3 IgG1, IgG2 and IgG4 constructs. The KD ranges were determined using 2:1 kinetics of binding of analyte (BSA-cSNK) in solution to two different binding sites on the surface (immobilized bivalent, monospecific 5E3) in comparison to murine 5E3 using biolayer interferometry (Octet RED96).

cSNK:BSA conjugate [22] = target: T1, cSNK:BSA conjugate; assay: BLI (Octet RED96), 2:1 kinetics, KD2, summary table
Description: as §1, §2

cSNK:BSA conjugate [23] = target: T1, cSNK:BSA conjugate; assay: BLI 2:1 fit, site 1; 100 nM row
Description: as §1

cSNK:BSA conjugate [24] = target: T1, cSNK:BSA conjugate; assay: BLI 2:1 fit, site 2 (KD2); 100 nM row
Description: as §1

cSNK:BSA conjugate [25] = target: T1, cSNK:BSA conjugate; assay: BLI 2:1 fit, site 2 (kdis2); 100 nM row
Description: as §1

| Binder | koff (cSNK:BSA conjugate [1]) | kon (cSNK:BSA conjugate [1]) | koff (cSNK:BSA conjugate [2]) | kon (cSNK:BSA conjugate [2]) | koff (cSNK:BSA conjugate [3]) | kon (cSNK:BSA conjugate [3]) | koff (cSNK:BSA conjugate [4]) | kon (cSNK:BSA conjugate [4]) | Kd (cSNK:BSA conjugate [6]) | kon (cSNK:BSA conjugate [7]) | Kd (cSNK:BSA conjugate [8]) | Kd (cSNK:BSA conjugate [9]) | koff (cSNK:BSA conjugate [10]) | koff (cSNK:BSA conjugate [11]) | Kd (cSNK:BSA conjugate [12]) | Kd (cSNK:BSA conjugate [13]) | kon (cSNK:BSA conjugate [14]) | kon (cSNK:BSA conjugate [15]) | kon (cSNK:BSA conjugate [16]) | kon (cSNK:BSA conjugate [17]) | also measured |
| --- | --- | --- | --- | --- | --- | --- | --- | --- | --- | --- | --- | --- | --- | --- | --- | --- | --- | --- | --- | --- | --- |
| B1 | 0.000825 s⁻¹ | 1.78e+06 M⁻¹ s⁻¹ | 0.000825 s⁻¹ | 1.78e+06 M⁻¹ s⁻¹ | 0.000825 s⁻¹ | 1.78e+06 M⁻¹ s⁻¹ | 0.000825 s⁻¹ | 1.78e+06 M⁻¹ s⁻¹ | 1.82 nM | 6.56e+06 M⁻¹ s⁻¹ | 1.82 nM | 1.82 nM | 0.012 s⁻¹ | 0.012 s⁻¹ | 1.82 nM | 1.82 nM | 6.56e+06 M⁻¹ s⁻¹ | 6.56e+06 M⁻¹ s⁻¹ | 6.56e+06 M⁻¹ s⁻¹ | 6.56e+06 M⁻¹ s⁻¹ | Kd (cSNK:BSA conjugate [1]): 0.463 nM; Kd (cSNK:BSA conjugate [2]): 0.463 nM; Kd (cSNK:BSA conjugate [3]): 0.463 nM; Kd (cSNK:BSA conjugate [4]): 0.463 nM; Kd (cSNK:BSA conjugate [5]): 2.01 nM; koff (cSNK:BSA conjugate [18]): 0.012 s⁻¹; koff (cSNK:BSA conjugate [19]): 0.012 s⁻¹; koff (cSNK:BSA conjugate [20]): 0.012 s⁻¹; Kd (cSNK:BSA conjugate [21]): 0.463 nM; Kd (cSNK:BSA conjugate [22]): 0.182 nM |
| B2 | 0.000386 s⁻¹ | 692000 M⁻¹ s⁻¹ | 0.000386 s⁻¹ | 692000 M⁻¹ s⁻¹ | 0.000386 s⁻¹ | 692000 M⁻¹ s⁻¹ | 0.000386 s⁻¹ | 692000 M⁻¹ s⁻¹ | 3.94 nM | 4.44e+06 M⁻¹ s⁻¹ | 3.94 nM | 3.94 nM | 0.0175 s⁻¹ | 0.0175 s⁻¹ | 3.94 nM | 3.94 nM | 4.44e+06 M⁻¹ s⁻¹ | 4.44e+06 M⁻¹ s⁻¹ | 4.44e+06 M⁻¹ s⁻¹ | 4.44e+06 M⁻¹ s⁻¹ | koff (cSNK:BSA conjugate [23]): 0.000386 s⁻¹; kon (cSNK:BSA conjugate [23]): 692000 M⁻¹ s⁻¹; Kd (cSNK:BSA conjugate [24]): 3.94 nM; koff (cSNK:BSA conjugate [25]): 0.0175 s⁻¹; koff (cSNK:BSA conjugate [18]): 0.0175 s⁻¹; koff (cSNK:BSA conjugate [19]): 0.0175 s⁻¹; koff (cSNK:BSA conjugate [20]): 0.0175 s⁻¹; Kd (cSNK:BSA conjugate [21]): 0.557 nM; Kd (cSNK:BSA conjugate [22]): 0.394 nM |
